# Patent publication US20030083294, “Modulators of pharmacological agents” (published 2003)
# Target: coagulation factor IXa (FIXa) (Homo sapiens, UniProt P00740;P00740 P00740:47-191,P00740:227-461)
# Test: KD comparable to 9.3t
binder,measurement,value
"AUGGGGACUAUACCGGCAAUCGUGCAUCCCCAU (ssRNA, 2'-F pyrimidines, 2'-OH purines) [9.20t]",binding result,binds
